Measurements: paper PMC11117068

Target: complement C3b (UniProt P01024)
Assay: not stated; C3b binding affinity of polymorphic variants, data in Supplementary Table S3

Substance: moss-produced factor H Val62/His402 variant (from UniProt P08603 19-1231) (natural protein)
- fold lower C3b binding affinity than the CPV-101 Ile62/Tyr402 variant: 1.5 fold
